{
  "source": "the DeepSol protein solubility set",
  "data": [
    {"test": "soluble on expression in E. coli; label from the status in PepcDB or PDB records", "values": [
      {"sequence": "MLEFEQGFNHLATLKVIGVGGGGNNAVNRMIDHGMNNVEFIAINTDGQALNLSKAESKIQIGEKLTRGLGAGANPEIGKKAAEESREQIEDAIQGADMVFVTSGMGGGTGTGAAPVVAKIAKEMGALTVGVVTRPFSFEGRKRQTQAAAGVEAMKAAVDTLIVIPNDRLLDIVDKSTPMMEAFKEADNVLRQGVQGISDLIAVSGEVNLDFADVKTIMSNQGSALMGIGVSSGENRAVEAAKKAISSPLLETSIVGAQGVLMNITGGESLSLFEAQEAADIVQDAADEDVNMIFGTVINPELQDEIVVTVIATGFDDKPTSHGRKSGSTGFGTSVNTSSNATSKDESFTSNSSNAQATDSVSERTHTTKEDDIPSFIRNREERRSRRTRR", "soluble on expression in E. coli": "not soluble"},
      {"sequence": "MSLELLSKLETKIQATLETIELLKMELEEEKQKTSTLSEQNNQLIEQNQQLQQELTSWNEKVTGLVGLLNSEI", "soluble on expression in E. coli": "soluble"},
      {"sequence": "MTRSALKPFKNKRVMVTGRIQRVLFKNYLDRHSTFKPNVRILLKDVFVSGVSIDHLWLYETNKYYALAMELIHQRVKFSANVVPYYKINRNNNLFVQDYGIKRKGRLITEEAYNQNNQYQDKIYEKLPDIDFRLEDFYSKENLEHHHHHH", "soluble on expression in E. coli": "not soluble"},
      {"sequence": "MAHHHHHHMKNSQMERKKYSVHNLVKLINERNKQNVRNKQPAVGADGTTSINAAGDGLDGETHSNFFHVEKNGQVGRKDKAGFPAEDGEIGGEYDVRDGSVDEEDECDGEAVRDGEAAPDEERADCTDGADTTLPPGGGGEVKLFMFDYNECQNQKCSCKKLYRFKKIKKAPINKKFKGIVLTPFCEKFFSINDKATVENFGLSVIDCSWKSLDLLKKAKFANQRKLPYIIAVNSINYGKPYKLSCLESLAFCLYVCGYNKQCTDILNIYKWSSSFVNLNGELLDMYKLCNTHEEVKSVEDEFIHNSLSEKEKRKEIDQYRVIYEDGYL", "soluble on expression in E. coli": "soluble"},
      {"sequence": "MGSDKIHHHHHHMIVPQEIYHPLYEDKEKFIILITGGRGSGKSFNASTFIERLTFELTPVEKIVHQILYTRYTMVSAGMSIIPEMMEKIELDGTTKYFKTTKTDIVNKMTKSRIMFRGIKTSSGNQTAKLKSIQGITTFVCDEAEEWTNEEEFDKIMLSIRKKGIQNRIIIIMNPCDSNHFIYKKYIENTHKLVEIDGVQVQISTHPNVLHIHTTYLDNLENLSPEFLKEVEDMKVNNPEKYAHVVIGRWADVAEGAVFKKWGIVDEFPAWAKKVAIGQDFGYTHDPSASIRCGIVDNALYLDEIDYRTGLLSSDIIKSLRPWGLKVIADSADPRLIQEIHNGGVKIYAVEKGAGSVNAGLDKMQGMEMYITKRSYNLQREYRKYVWAKDKDGNYINEPEDHDNHGIDAVRYYVLGELLGKIQKPKDLTGIFTH", "soluble on expression in E. coli": "not soluble"},
      {"sequence": "MGRVGVLLANLGTPDDYSYWPMRRYLNEFLSDKRVIDYPAWKWQPILQGIILTKRPFSSGAAYESIWNHDKGESPLMTITKDQTAKLRAALAERYGDRVMVDFCMRYGNPSTKSKVRQMVTEGCDRILFFPLYPQYAGATTATANDQFFRALMDETWQPAARTVPAYFDQPAYVDALAQSIERAYAAMDSRPDVLVCSYHGMPERYLMQGD", "soluble on expression in E. coli": "not soluble"},
      {"sequence": "MGSDKIHHHHHHMFALAASNMILRGDGKANLHQSSCFMTDFQDLIKNPKPETGLKRPNVGFLNPPYAQSKSDAELHELYFVKEMLDMLAEGGTGIAIIPVSCVIAPSKAKSEIVKYHRLKAVMSMPSELFYPVGTVTCIVVFEAHKPHFQTVVIDPDTQEEISTKKACRKTWFGYWRDDGFEKTKHLGRIDLYDRWQGIKARWLEHYLNNEVHTGESVTAFVTDNDEWVAEAYLETDYSKITRADFEQVVREFALFQLLGAEVGPTENLDNESYEDDDNNDFGDDE", "soluble on expression in E. coli": "not soluble"},
      {"sequence": "MFKNLIWLKEVDSTQERLKEWNVSYGTALVADRQTKGRGRLGRKWLSQEGGLYFSFLLNPKEFENLLQLPLVLGLSVSEALEEITEIPFSLKWPNDVYFQEKKVSGVLCELSKDKLIVGIGINVNQREIPEEIKDRATTLYEITGKDWDRKEVLLKVLKRISENLKKFKEKSFKEFKGKIESKMLYLGEEVKLLGEGKITGKLVGLSEKGGALILTEEGIKEILSGEFSLRRS", "soluble on expression in E. coli": "soluble"},
      {"sequence": "MSTIKIVPLGGVRENGKNMYVAEVEDEIFVLDCGLQYPENELLGIDVVIPDFTYLEENSERIAGVFLTHGHADAIGALPYLLSKIQVPVFGTELTIELAKLSVNSHAETKKFKDFHVIDPHTEIDFGQATVSFFKTTHTIPDSIGVSIKTKEGNIVYTGDFKFDQSAIEMYQTDYGRLAEIGKEGVLALLSDSSNAENPAQVASEAQIADEVFDTIRYWEGRIIVACVASNLQRVQQVLNAADRSGRKVVLTGQDFERIIRTAMKLEKLQLPSEDLLVKPKEMKKYAPEQLLILETGRMGEPIKSLQKMANNTHGVVRIEEGDLVYITTTPTTAMETTVAKTEDIVYRAGATVKQISDNLRVSGHANPNDLQLMLNLMKPKYFIPVQGEYRQLAAHADLAHEIGMPYKDIFITGRGDILEYTKGRMSVAGSTTAENIMIDGIGVGDIGNIVLRDRRILSEDGIFVAVVTINRREKRIVSPAKITSRGFVYVKTSKDLMKESSNIVTEIVEKHLESDDFEWSKLKQEIRENLSRYLFEQTKRRPVILPVIMEATQRKRPKNNA", "soluble on expression in E. coli": "not soluble"},
      {"sequence": "MQAAPQGGIYNYFHSLLPPLSLAPFLPRTPLPSTSLFCKGLKKERYKPRFRPRECHCSVENLHLGHEMQNSHRTICKSALQLLPPSWSDPFRRRDADFPPNSPSPARPSSENASNRAKEKVHLSPIIALCISHHTSQEKLFTQHLMNMPTGETHKSPPS", "soluble on expression in E. coli": "not soluble"},
      {"sequence": "MVVIMLNYDDIKIIDEIYSEGYLFAQYGIYIKKKFKQKIFKIPVDIGLGCPHKKNGGCIFCPEMGRPISVKYCSAKIPLKEQIKKQMENQKKKGFKKFYIYFYPGTNTYAPAEKLKEIWDFSLSYKEVIGLSIGTRPDCLEKEKLDILAEYVENGYDIWIDLGVQSMHQKTLEILNRGHDVSDIIKAIKDCHKRGIKVCGHVILGLPGESWKEMMETAKILSLLEIEAVKIYPLVVVKGTKLEEMYW", "soluble on expression in E. coli": "not soluble"},
      {"sequence": "MTFNHKKMEPKWQQYWSEHNTFKTTEDKNKENFYALDMFPYPSGAGLHVGHPEGYTATDILSRMKRMQGKNVLHPIGWDAFGLPAEQYAIDTGNDPEEFTALNIANFTRQIKSLGFSYDWDREINTTDPEYYKWTQWIFEKLYENGLAYEAEIAVNWCPALGTVLANEEVIDGKSERGGFPVFRKPMRQWMLKITAYADRLLDDLDLVDWPENIKDMQRNWIGRSEGAEVTFKIKDSDETFNVFTTRPDTLFGATYTVFAPEHELIEKITTPEQKEAVEAYKKQVELKSELERTDLAKDKTGVFTGAYAINPINGEEVPIWIADYVLIQYGTGAIMAVPAHDERDFEFAQQFGLNIRPVLEGGDVTKEAFTGDGPHINSDFLNGLAKAEAITAAIDWLEKEGIGSRKITYRLRDWLFSRQRYWGEPIPVIHWEDGETTLVPEEELPLLLPKATEIKPSGTGESPLANLHDWVNVTDENGRKGRRETNTMPQWAGSSWYFLRYIDPKNSEAIADKEKLAEWLPVDVYIGGAEHAVLHLLYARFWHKFLYDIGVVPTKEPFQKLFNQGMILGENNEKMSKSRGNVVNPDEVVEKYGADTLRLYEMFMGPLEASIAWNENGLEGARKFLDRIWRLLVTEEGTLAEKVTTDANANLEKAYHHMVKTVTNHYENLRFNTGISQLMIFINEAYKQDTIPKQYVEGFVQLLSPIAPHLAEELWEILGHTETISYVAWPTYDETKLVEDEVEIVLQVNGKVKSKITVAKSLGKEELEKIAQEDNKMKENLEGKTIRKVIVVPGKLVNIVAN", "soluble on expression in E. coli": "not soluble"},
      {"sequence": "MKLTGSKILIECLKEQGVDTIFGFPGGAVLNIYDELYRSQNEIRHILTSHEQGAAHAADGYARATGKVGVCLATSGPGATNLVTGIATAYMDSVPMVAITGQVATPLLGKDSFQEVDITGITMPITKHNFIVKDVNKLADIVRRAFYIAKEGRPGPVLIDICKDVTAAYAEYEPKSPQELPEVPVRVDEKCIDEAAEAINKAERPVILAGGGVSIAGANKELFEFATNAQIPVTTTLMGMGAFPGTHELFMGMIGMHGTKTTNMAVSESDLFIAIGARFSDRVISNVQRFAPKASIMHIDIDPAEIGKNINVQYALEGNIKKILQLLNERVKKKECTDWVRKINEWKELYPLKYPQDDKLHPQYIIERMYELTKGEAIITTEVGQHQMWAAQFYKYTSPRQFLSSGGLGTMGYGLGACIGARIGRPDKKVINVAGDGSFRMNCNELATAVEYKLPIIVAIFNNHALGMVRQWQQLFYGGRYSSTSLDRCTDFKALAEAYGAIGINVTAKEEVDEALNRALASEDTPVVINFEIDKDEMVFPIVPPGAPLSELIEE", "soluble on expression in E. coli": "not soluble"},
      {"sequence": "MTHSPSFLQHALSSSDTRAEWPLPGGLAARWLAPGCVELNGDARGADSVLLSCGVHGNETAPIEVVDGMLTDIAAGQLALNCRLLVMFANLDAIRQGVRYGNYDMNRLFNGAHARHPELPESVRAAELETLAAEFFAGARARKLHYDLHTAIRGSVFEKFAIYPFLHDGRTHKREQLAWLQRCGIEAVLLHTQPANTFSYFTSQYCEADAFTLELGKARPFGQNDLSRFSGIDGALRGLLSNPQANVPDLDEDKLPLFRAKYDLVKHSEAFKLNLADSVENFTLLPDGMLIAEDGAVRYQATGGEERILFPNPAVKPGLRAGIVVEPARLPSRLEHHHHHH", "soluble on expression in E. coli": "soluble"},
      {"sequence": "MDQQEPSNNVDTSSILSDDGMETQEQSSFVTATIDLTVDDYDETEIQEILDNGKAEEGTDEDSDLVEGILNANSDVQALLDAPSEQVAQALNSFFGNESEQEAVAAQRRVDAEKTAKDEAELKQQEEAEDLIIEDSIVKTDEEKQAVRRLKINEFLSWFTRLLPEQFKNFEFTNPNYLTESISDSPVVNVDKCKEIVKSFKESESLEGLSQKYELIDEDVLVAAICIGVLDTNNEEDVDFNVLCDDRIDDWSIEKCVTFLDYPNTGLNSKNGPLRFMQFTVTSPASAILMLTLIRLREEGHPCRLDFDSNPTDDLLLNFDQVEFSNNIIDTAVKYWDDQKENGAQDKIGRRVLIKLTTVLKNAVGSRNEIIQLVNEKIPDFDGTEAAVNESFTSDQRTEIINSRAIMETLKAEMKLAIAEAQKVYDTKTDFEKFFVLTVGDFCLARANPSDDAELTYAIVQDRVDAMTYKVKFIDTSQIRECNIRDLAMTTQGMYDPSLNTFGDVGLRVACRQVISSSQFGKKTIWLTGTAAGRRRAHRSDFLIFFDNGTDAYVSAPTMPGEPGYEVASEKKSVFSLKEMIAKMNAAQIAIMVGQPVGKEGNLDYFLTFHWIRQSHRSAYIRDFMKEFPEWPLLKMPVGMRICLYNSLVDRRKKMVTVIGTDRAFAIVRHEAPNPLAPGNRCTDFPCNDRNHQHIDEKIYRGSHRLEGAAHKKHMISTNNNLSQRRKDQLQSQFEPTDMIRSMPERNHQQVVKKKTTGTNQNVASTNDAKSKREIEIRKKNQFLFNKIIVPIPVLTPLENLKAHAQCGPDCLQKMDADPYEARFHRNSPIHTPLLCGWRRIMYTMSTGKKRGAVKKNIIYFSPCGAALHQISDVSEYIHVTRSLLTIDCFSFDARIDTATYITVDDKYLKVADFSLGTEGIPIPLVNSVDNDEPPSLEYSKRRFQYNDQVDISSVSRDFCSGCSCDGDCSDASKCECQQLSIEAMKRLPHNLQFDGHDELYESSEKQNKFLKLFFFRVPHYQNRLLSSKVISGLYECNDQCSCHRKSCYNRVVQNNIKYPMHVSLFNDDTYQLLFFLQIFKTAQSGWGVRALTDIPQSTFICTYVGAILTDDLADELRNADQYFADLDLKDTVELEKGREDHETDFGYGGDESDYDDEEGSDGDSGDDVMNKMVKRQDSSESGEETKRLTRQKRKQSKKSGKGGSVEKDDTTPRDSMEKDNIESKDEPVFNWDKYFEPFPLYVIDAKQRGNLGRFLNHSCDPNVHVQHVMYDTHDLRLPWVAFFTRKYVKAGDELTWDYQYTQDQTATTQLTCHCGAENCTGRLLKS", "soluble on expression in E. coli": "not soluble"},
      {"sequence": "DQEVRLENRITFQLELVGLERVVRISAKPTKRLQEALQPILAKHGLSLDQVVLHRPGEKQPMDLENPVSSVASQTLVLDTPPDAKMSEARS", "soluble on expression in E. coli": "soluble"}
    ]}
  ]
}
